Measurements taken from patent US20030186281A1, “Modified tetracycline repressor protein compositions and methods of use” (priority 2001, published 2003).

Test system: tet operator sequence
Test: β-galactosidase activity of a tetracycline-regulated promoter in transformed E. coli with revTetR, in the presence and absence of anhydrotetracycline (atc)
Assay type: cell-based, Escherichia coli
Conditions: for β-Galactosidase Activity, Cultured Without ATC: RevTetR isolate cultured in the absence of anhydrotetracycline (ATC); for β-Galactosidase Activity, Cultured With ATC: RevTetR isolate cultured in the presence of anhydrotetracycline (ATC)
Outline: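 TetR(BD) chimera mutants (TetR(B) residues 1–50, TetR(D) 51–208) expressed in E. coli regulating a tet operator-controlled lacZ. β-Galactosidase measured in Miller units at 28 °C and 37 °C with and without anhydrotetracycline; reported as percent of maximal expression without Tet repressor.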

Row | Molecule | β-Galactosidase Activity, Cultured Without ATC | β-Galactosidase Activity, Cultured With ATC
1 | TetRrevAD2/1: revTetR(BD) G21G L51L D53Y L55L A56P A61E (protein, Modified tetracycline repressor, revTetR(BD) G21G L51L D53Y L55L A56P A61E) MSRLDKSKVINSALELLNGVGIEGLTTRKLAQKLGVEQPTLYWHVKNKRALLYALPVEILERHHDYSLPAAGESWQSFLRNNAMSFRRALLRYRDGAKVHLGTRPDEKQYDTVETQLRFMTENGFSLRDGLYAISAVSHFTLGAVLEQQEHTAALTDRPAAPDENLPPLLREALQIMDSDDGEQAFLHGLESLIRGFEVQLTALLQIV | 34.2242 | 1.17
2 | TetRrev96/99-2: revTetR(BD) G99K V99A (protein, Modified tetracycline repressor, revTetR(BD) G99K V99A) MSRLDKSKVINSALELLNEVGIEGLTTRKLAQKLGVEQPTLYWHVKNKRALLDALAVEILARHHDYSLPAAGESWQSFLRNNAMSFRRALLRYRDKAKAHLGTRPDEKQYDTVETQLRFMTENGFSLRDGLYAISAVSHFTLGAVLEQQEHTAALTDRPAAPDENLPPLLREALQIMDSDDGEQAFLHGLESLIRGFEVQLTALLQIV | 94.5832 | 31.604
3 | TetRrevAF5/3: revTetR(BD) E15G N18K R94H G96G G102V (protein, Modified tetracycline repressor, revTetR(BD) E15G N18K R94H G96G G102V) MSRLDKSKVINSALGLLKEVGIEGLTTRKLAQKLGVEQPTLYWHVKNKRALLDALAVEILARHHDYSLPAAGESWQSFLRNNAMSFRRALLRYHDGAKVHLVTRPDEKQYDTVETQLRFMTENGFSLRDGLYAISAVSHFTLGAVLEQQEHTAALTDRPAAPDENLPPLLREALQIMDSDDGEQAFLHGLESLIRGFEVQLTALLQIV | 58.5651 | 1.8337
4 | TetRrevAF5/1: revTetR(BD) L14F D95A V99G (protein, Modified tetracycline repressor, revTetR(BD) L14F D95A V99G) MSRLDKSKVINSAFELLNEVGIEGLTTRKLAQKLGVEQPTLYWHVKNKRALLDALAVEILARHHDYSLPAAGESWQSFLRNNAMSFRRALLRYRAGAKGHLGTRPDEKQYDTVETQLRFMTENGFSLRDGLYAISAVSHFTLGAVLEQQEHTAALTDRPAAPDENLPPLLREALQIMDSDDGEQAFLHGLESLIRGFEVQLTALLQIV | 100.053 | 1.072
5 | TetRrev96/99-1: revTetR(BD) G96H V99R (protein, Modified tetracycline repressor, revTetR(BD) G96H V99R) MSRLDKSKVINSALELLNEVGIEGLTTRKLAQKLGVEQPTLYWHVKNKRALLDALAVEILARHHDYSLPAAGESWQSFLRNNAMSFRRALLRYRDHAKRHLGTRPDEKQYDTVETQLRFMTENGFSLRDGLYAISAVSHFTLGAVLEQQEHTAALTDRPAAPDENLPPLLREALQIMDSDDGEQAFLHGLESLIRGFEVQLTALLQIV | 58.4545 | 25.484
6 | TetRrevAtc4-16: revTetR(BD) D53N A54G V57F I59S L60F (protein, Modified tetracycline repressor, revTetR(BD) D53N A54G V57F I59S L60F) MSRLDKSKVINSALELLNEVGIEGLTTRKLAQKLGVEQPTLYWHVKNKRALLNGLAFESFARHHDYSLPAAGESWQSFLRNNAMSFRRALLRYRDGAKVHLGTRPDEKQYDTVETQLRFMTENGFSLRDGLYAISAVSHFTLGAVLEQQEHTAALTDRPAAPDENLPPLLREALQIMDSDDGEQAFLHGLESLIRGFEVQLTALLQIV | 104.174 | 16.914
7 | TetRrev96/99-3: revTetR(BD) G96E V99T (protein, Modified tetracycline repressor, revTetR(BD) G96E V99T) MSRLDKSKVINSALELLNEVGIEGLTTRKLAQKLGVEQPTLYWHVKNKRALLDALAVEILARHHDYSLPAAGESWQSFLRNNAMSFRRALLRYRDEAKTHLGTRPDEKQYDTVETQLRFMTENGFSLRDGLYAISAVSHFTLGAVLEQQEHTAALTDRPAAPDENLPPLLREALQIMDSDDGEQAFLHGLESLIRGFEVQLTALLQIV | 103.749 | 31.808
8 | TetRrevAF4/13: revTetR(BD) A13A E15D L17L E19V I22I E23K R94H G95N (protein, Modified tetracycline repressor, revTetR(BD) A13A E15D L17L E19V I22I E23K R94H G95N) MSRLDKSKVINSALDLLNVVGIKGLTTRKLAQKLGVEQPTLYWHVKNKRALLDALAVEILARHHDYSLPAAGESWQSFLRNNAMSFRRALLRYHNGAKVHLGTRPDEKQYDTVETQLRFMTENGFSLRDGLYAISAVSHFTLGAVLEQQEHTAALTDRPAAPDENLPPLLREALQIMDSDDGEQAFLHGLESLIRGFEVQLTALLQIV | 98.8886 | 2.5827
9 | TetRrev96/99-5: revTetR(BD) G96I V99K (protein, Modified tetracycline repressor, revTetR(BD) G96I V99K) MSRLDKSKVINSALELLNEVGIEGLTTRKLAQKLGVEQPTLYWHVKNKRALLDALAVEILARHHDYSLPAAGESWQSFLRNNAMSFRRALLRYRDIAKKHLGTRPDEKQYDTVETQLRFMTENGFSLRDGLYAISAVSHFTLGAVLEQQEHTAALTDRPAAPDENLPPLLREALQIMDSDDGEQAFLHGLESLIRGFEVQLTALLQIV | 57.8391 | 17.087
10 | TetRrevAF5/13: revTetR(BD) L14L V20G V99E (protein, Modified tetracycline repressor, revTetR(BD) L14L V20G V99E) MSRLDKSKVINSALELLNEGGIEGLTTRKLAQKLGVEQPTLYWHVKNKRALLDALAVEILARHHDYSLPAAGESWQSFLRNNAMSFRRALLRYRDGAKEHLGTRPDEKQYDTVETQLRFMTENGFSLRDGLYAISAVSHFTLGAVLEQQEHTAALTDRPAAPDENLPPLLREALQIMDSDDGEQAFLHGLESLIRGFEVQLTALLQIV | 105.942 | 4.4642
11 | TetRrevAF6/5: revTetR(BD) V20V I22V E23D D95N H100P (protein, Modified tetracycline repressor, revTetR(BD) V20V I22V E23D D95N H100P) MSRLDKSKVINSALELLNEVGVDGLTTRKLAQKLGVEQPTLYWHVKNKRALLDALAVEILARHHDYSLPAAGESWQSFLRNNAMSFRRALLRYRNGAKVPLGTRPDEKQYDTVETQLRFMTENGFSLRDGLYAISAVSHFTLGAVLEQQEHTAALTDRPAAPDENLPPLLREALQIMDSDDGEQAFLHGLESLIRGFEVQLTALLQIV | 102.848 | 2.8572
12 | TetRrev96/99-4: revTetR(BD) G96P V99S (protein, Modified tetracycline repressor, revTetR(BD) G96P V99S) MSRLDKSKVINSALELLNEVGIEGLTTRKLAQKLGVEQPTLYWHVKNKRALLDALAVEILARHHDYSLPAAGESWQSFLRNNAMSFRRALLRYRDPAKSHLGTRPDEKQYDTVETQLRFMTENGFSLRDGLYAISAVSHFTLGAVLEQQEHTAALTDRPAAPDENLPPLLREALQIMDSDDGEQAFLHGLESLIRGFEVQLTALLQIV | 109.291 | 32.997
13 | TetRrevAF5/5: revTetR(BD) L14V L17F V20A I22M L25F D95H (protein, Modified tetracycline repressor, revTetR(BD) L14V L17F V20A I22M L25F D95H) MSRLDKSKVINSAVELFNEAGMEGFTTRKLAQKLGVEQPTLYWHVKNKRALLDALAVEILARHHDYSLPAAGESWQSFLRNNAMSFRRALLRYRHGAKVHLGTRPDEKQYDTVETQLRFMTENGFSLRDGLYAISAVSHFTLGAVLEQQEHTAALTDRPAAPDENLPPLLREALQIMDSDDGEQAFLHGLESLIRGFEVQLTALLQIV | 100.546 | 1.6948
14 | TetRrevAtc4-14: revTetR(BD) L51L D53Q V57V E58K L60L A61V R62P H63D (protein, Modified tetracycline repressor, revTetR(BD) L51L D53Q V57V E58K L60L A61V R62P H63D) MSRLDKSKVINSALELLNEVGIEGLTTRKLAQKLGVEQPTLYWHVKNKRALLQALAVKILVPDHDYSLPAAGESWQSFLRNNAMSFRRALLRYRDGAKVHLGTRPDEKQYDTVETQLRFMTENGFSLRDGLYAISAVSHFTLGAVLEQQEHTAALTDRPAAPDENLPPLLREALQIMDSDDGEQAFLHGLESLIRGFEVQLTALLQIV | 62.985 | 25.025
15 | TetRrevAF6/1: revTetR(BD) A13A E19V V20A D95I G96G (protein, Modified tetracycline repressor, revTetR(BD) A13A E19V V20A D95I G96G) MSRLDKSKVINSALELLNVAGIEGLTTRKLAQKLGVEQPTLYWHVKNKRALLDALAVEILARHHDYSLPAAGESWQSFLRNNAMSFRRALLRYRIGAKVHLGTRPDEKQYDTVETQLRFMTENGFSLRDGLYAISAVSHFTLGAVLEQQEHTAALTDRPAAPDENLPPLLREALQIMDSDDGEQAFLHGLESLIRGFEVQLTALLQIV | 72.8186 | 3.7966
